Experimental findings from patent publication US20240016892A1 are described below.

The target of assay [1] is recombinant human LTβR (human) (UniProt P36941). Nature of the assay: BLI (Octet-Red96), tagged rhLTβR immobilised on biosensor. For orientation: In BLI a coated tip is dipped into the sample, and binding shifts an interference pattern.
The target of assay [2] is recombinant human HVEM (human) (UniProt Q92956). Nature of the assay: BLI (Octet-Red96), tagged rhHVEM immobilised on biosensor.
The target of assay [3] is human 4-1BB-His (human) (UniProt Q07011). The assay is described as follows: MSD 'Human 41BB-Binding Assay': coat h41BB-His (R&D), detect anti-41BBL (R&D), anti-Goat Sulfo; negative control, fit value for a curve that stays near the baseline.
The target is the same in assay [4]. Nature of the assay: MSD 'Human 41BB-Binding Assay': coat h41BB-His (R&D), detect anti-41BBL (R&D), anti-Goat Sulfo; positive control.
Assay [5] addresses recombinant human HVEM-Fc (human) (UniProt Q92956). The assay is described as follows: MSD sandwich: capture HVEM-Fc; detection PVR-Biotin.
Assay [6] concerns the target recombinant human LTβR-Fc (human) (UniProt P36941). The assay is described as follows: MSD sandwich: capture LTβR-Fc; detection PVR-Biotin.
The target of assay [7] is mouse CD47-Fc (mouse) (UniProt Q61735). Nature of the assay: MSD dual-binding sandwich: coat mCD47-Fc (Acro); detect m41BB-His (Acro); anti-His Biotin + Streptavidin Sulfo; labelled Negative Control.
Assay [8] deals with mouse CD47-His (mouse) (UniProt Q61735). Nature of the assay: MSD: coat mCD47-His (Acro); detection anti-mouse Sulfo (MSD); labelled Positive Control.
The target of assay [9] is mouse 4-1BB-His (mouse) (UniProt P20334). Nature of the assay: MSD: coat m41BB-His (Acro); detection anti-mouse Sulfo (MSD); labelled Negative Control, flat curve.
The target of assay [10] is recombinant human PVR (human) (UniProt P15151). Nature of the assay: BLI (Octet-Red96), tagged rhPVR immobilised on biosensor.

As usually defined, the Kd is the concentration at which binding is half-saturated. Usually koff stands for a measure of how fast the partners let go of each other. By kon is commonly meant the second-order rate constant of association. By EC50 is commonly meant the concentration giving half of the maximal effect. As usually defined, the EC50 (read off the curve) is the midpoint of the concentration-response curve.

recombinant human HVEM (human), sequence (Q92956 39-202 limits assumed): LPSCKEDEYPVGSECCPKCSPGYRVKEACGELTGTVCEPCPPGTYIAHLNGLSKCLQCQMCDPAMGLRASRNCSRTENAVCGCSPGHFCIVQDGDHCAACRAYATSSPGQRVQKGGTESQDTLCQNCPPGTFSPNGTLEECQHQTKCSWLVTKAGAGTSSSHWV
recombinant human PVR (human), sequence (P15151 21-343 limits assumed): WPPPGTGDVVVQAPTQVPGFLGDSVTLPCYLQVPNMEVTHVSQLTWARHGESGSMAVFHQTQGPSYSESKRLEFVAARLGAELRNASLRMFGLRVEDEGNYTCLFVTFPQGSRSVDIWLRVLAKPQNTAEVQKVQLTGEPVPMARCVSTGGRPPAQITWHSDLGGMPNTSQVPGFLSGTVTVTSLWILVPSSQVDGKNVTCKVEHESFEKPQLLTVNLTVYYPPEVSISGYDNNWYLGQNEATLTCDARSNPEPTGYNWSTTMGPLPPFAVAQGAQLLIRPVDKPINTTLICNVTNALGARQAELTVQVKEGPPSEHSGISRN
recombinant human LTβR (human), sequence (P36941 31-227 limits assumed): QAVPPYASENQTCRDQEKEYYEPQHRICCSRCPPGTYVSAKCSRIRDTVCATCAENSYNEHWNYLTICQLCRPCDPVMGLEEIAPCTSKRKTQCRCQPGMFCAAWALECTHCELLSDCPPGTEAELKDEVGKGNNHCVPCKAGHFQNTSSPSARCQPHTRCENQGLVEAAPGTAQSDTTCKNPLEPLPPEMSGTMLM
human 4-1BB-His (human), sequence (Q07011 24-186 limits assumed): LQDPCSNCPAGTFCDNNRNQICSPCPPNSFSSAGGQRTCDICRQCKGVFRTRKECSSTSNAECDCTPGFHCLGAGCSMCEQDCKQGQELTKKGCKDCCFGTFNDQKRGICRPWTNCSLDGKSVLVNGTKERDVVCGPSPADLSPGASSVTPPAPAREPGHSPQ
recombinant human HVEM-Fc (human), sequence (Q92956 39-202 limits assumed): as the sequence (Q92956 39-202 limits assumed) above
mouse CD47-His (mouse), sequence (Q61735 19-140 limits assumed): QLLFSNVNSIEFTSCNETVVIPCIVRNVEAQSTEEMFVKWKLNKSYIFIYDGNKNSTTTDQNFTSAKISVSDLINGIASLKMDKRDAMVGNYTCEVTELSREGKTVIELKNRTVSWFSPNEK
mouse CD47-Fc (mouse), sequence (Q61735 19-140 limits assumed): as above
mouse 4-1BB-His (mouse), sequence (P20334 24-187 limits assumed): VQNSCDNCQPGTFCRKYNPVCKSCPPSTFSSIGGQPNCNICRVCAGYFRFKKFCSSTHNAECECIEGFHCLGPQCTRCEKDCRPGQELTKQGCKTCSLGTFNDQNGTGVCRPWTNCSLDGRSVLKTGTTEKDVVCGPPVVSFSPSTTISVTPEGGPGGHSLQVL
recombinant human LTβR-Fc (human), sequence (P36941 31-227 limits assumed): as the sequence (P36941 31-227 limits assumed) above

In the case of “Fc-LIGHT single-sided fusion protein control (Fc fusion)”, in [1], the Kd is 28.4 nM, the koff was 0.00754 s⁻¹ and the kon is 266000 M⁻¹ s⁻¹. Also, in assay [2], the Kd is 2.12 nM, the koff was found to be 0.000876 s⁻¹ and the kon turned out to be 410000 M⁻¹ s⁻¹.

Substance “hSIRPα-Fc-CD40L chimeric protein (Fc fusion)” registered an EC50 in assay [3] of 143 nM.

In [4], “PD-1-Fc-4-1BBL chimeric protein (as used in Example 14) (Fc fusion)” came in with an EC50 of 0.63 nM.

On to “TIGIT-Fc(IgG1)-LIGHT chimeric protein (Fc fusion)”, for which the EC50 (read off the curve) stood at 5 nM in assay [5] and 3 nM in assay [6].

Take “PD-1-Fc-4-1BBL chimeric protein (as used in Example 15) (Fc fusion)”: the EC50 in assay [7] was determined as 45000 nM.

Regarding “mSIRPα-Fc-CD40L chimeric protein (Fc fusion)”, the EC50 in assay [8] worked out at 0.369 nM; in [9], 5350 nM.

With “TIGIT-Fc single-sided fusion protein control (Fc fusion)”, in assay [10], the Kd turned out to be 5.24 nM, the koff turned out to be 0.00154 s⁻¹ and the kon is 296000 M⁻¹ s⁻¹.
